Measurements published in publication PMC8262886, “The Breadth and Molecular Basis of Hcp-Driven Type VI Secretion System Effector Delivery” (mBio, 2021).

Molecular target: the molecule itself
Test: negative-stain electron microscopy; purified Hcp1-His diluted to 0.01 mg/ml, 2% uranyl acetate, 2D class averages with top and side views

B1: Hcp1-His (natural protein)
chain: MAVDMFIKIGDVKGESKDKTHAEEIDVLAWSWGMSQSGSMHMGGGGGAGKVNVQDLSFTKYIDKSTPNLMMACSSGKHYPQAKLTIRKAGGENQVEYLIITLKEVLVSSVSTGGSGGEDRLTENVTLNFAQVQVDYQPQKADGAKDGGPVKYGWNIRQNVQA
notes: Hcp1 of Pseudomonas aeruginosa, the Hcp of the H1-T6SS; also called His-tagged version of Hcp1; source: E. coli BL21(λDE3), from pACYCDuet-1; coexpressed with an effector, in lysate, copurified (Ni-NTA, SEC); also purified alone (Ni-NTA, SEC); not shown: His, C-terminal, kept
binding result: binds
